Reference: the supplement of paper PMC10065799, “High-throughput profiling of sequence recognition by tyrosine kinases and SH2 domains using bacterial peptide display” (eLife, 2023)

Tests used:
Grb2 SH2 = Grb2 SH2 (UniProt P62993); experiment: SH2 binding enrichment of the phosphorylated peptide, bacterial display (enrichment ratio); higher = better substrate or ligand; peptides without Tyr show the background
c-Src SH2 = experiment: as above
SHP2-C SH2 = experiment: as above
Jak2 = Jak2 (UniProt O60674); experiment: phosphorylation enrichment, bacterial display (enrichment ratio); higher = better substrate or ligand; peptides without Tyr show the background
EPHB1 = EPHB1 (UniProt P54762); experiment: as above
EPHB1, sequence (P54762 whole entry, looked up): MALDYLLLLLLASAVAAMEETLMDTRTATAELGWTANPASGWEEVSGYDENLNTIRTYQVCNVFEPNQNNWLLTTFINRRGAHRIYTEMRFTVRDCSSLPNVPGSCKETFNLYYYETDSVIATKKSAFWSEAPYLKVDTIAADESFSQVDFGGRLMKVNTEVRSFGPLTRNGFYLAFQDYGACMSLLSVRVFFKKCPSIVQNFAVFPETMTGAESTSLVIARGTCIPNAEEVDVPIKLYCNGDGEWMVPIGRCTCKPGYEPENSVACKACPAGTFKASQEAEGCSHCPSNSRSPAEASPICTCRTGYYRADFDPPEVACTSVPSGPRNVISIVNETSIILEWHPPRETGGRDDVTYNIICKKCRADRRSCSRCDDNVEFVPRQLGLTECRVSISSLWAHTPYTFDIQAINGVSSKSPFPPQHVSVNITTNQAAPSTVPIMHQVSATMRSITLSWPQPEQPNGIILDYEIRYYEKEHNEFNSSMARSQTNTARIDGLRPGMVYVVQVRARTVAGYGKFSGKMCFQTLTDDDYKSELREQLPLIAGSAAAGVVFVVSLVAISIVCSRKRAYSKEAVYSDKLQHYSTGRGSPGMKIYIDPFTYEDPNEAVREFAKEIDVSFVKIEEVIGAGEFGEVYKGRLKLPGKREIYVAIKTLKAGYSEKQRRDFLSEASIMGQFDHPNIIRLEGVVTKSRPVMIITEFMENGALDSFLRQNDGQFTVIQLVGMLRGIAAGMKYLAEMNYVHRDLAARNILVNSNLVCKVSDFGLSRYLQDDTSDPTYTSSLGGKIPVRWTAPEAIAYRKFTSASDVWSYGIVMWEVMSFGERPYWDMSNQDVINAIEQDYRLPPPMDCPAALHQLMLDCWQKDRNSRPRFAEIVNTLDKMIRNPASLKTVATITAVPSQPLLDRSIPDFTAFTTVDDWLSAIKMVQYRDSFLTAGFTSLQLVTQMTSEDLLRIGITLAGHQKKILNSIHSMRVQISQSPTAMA

FGFR1 = FGFR1 (UniProt P11362); experiment: as above
FGFR1, sequence (P11362 whole entry, looked up): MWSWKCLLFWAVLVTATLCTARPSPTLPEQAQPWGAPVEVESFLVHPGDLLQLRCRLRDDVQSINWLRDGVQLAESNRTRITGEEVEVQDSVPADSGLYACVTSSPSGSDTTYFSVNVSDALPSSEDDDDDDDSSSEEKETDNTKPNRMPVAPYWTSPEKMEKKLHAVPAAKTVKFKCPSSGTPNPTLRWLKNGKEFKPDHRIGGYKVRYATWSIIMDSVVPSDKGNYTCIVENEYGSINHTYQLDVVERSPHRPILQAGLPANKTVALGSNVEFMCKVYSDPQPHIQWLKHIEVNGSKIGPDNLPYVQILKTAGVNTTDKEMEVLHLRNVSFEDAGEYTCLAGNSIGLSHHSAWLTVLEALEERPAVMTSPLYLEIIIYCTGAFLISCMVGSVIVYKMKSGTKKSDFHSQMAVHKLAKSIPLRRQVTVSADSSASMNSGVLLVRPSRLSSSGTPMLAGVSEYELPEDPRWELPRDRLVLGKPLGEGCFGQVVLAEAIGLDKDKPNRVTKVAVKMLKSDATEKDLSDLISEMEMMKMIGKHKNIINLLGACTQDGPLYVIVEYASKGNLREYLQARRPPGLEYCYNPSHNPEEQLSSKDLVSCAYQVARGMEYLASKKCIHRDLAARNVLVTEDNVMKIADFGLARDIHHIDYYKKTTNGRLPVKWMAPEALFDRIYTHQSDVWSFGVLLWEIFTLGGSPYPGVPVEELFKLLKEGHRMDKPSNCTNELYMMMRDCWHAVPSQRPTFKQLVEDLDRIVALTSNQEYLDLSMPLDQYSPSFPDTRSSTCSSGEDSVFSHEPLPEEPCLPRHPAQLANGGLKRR

c-Src = experiment: as above
Fyn = Fyn (UniProt P06241); experiment: as above
Fer (mouse) = experiment: as above
Hck = Hck (UniProt P08631); experiment: as above
MERTK = MERTK (UniProt Q12866); experiment: as above
MERTK, sequence (Q12866 whole entry, looked up): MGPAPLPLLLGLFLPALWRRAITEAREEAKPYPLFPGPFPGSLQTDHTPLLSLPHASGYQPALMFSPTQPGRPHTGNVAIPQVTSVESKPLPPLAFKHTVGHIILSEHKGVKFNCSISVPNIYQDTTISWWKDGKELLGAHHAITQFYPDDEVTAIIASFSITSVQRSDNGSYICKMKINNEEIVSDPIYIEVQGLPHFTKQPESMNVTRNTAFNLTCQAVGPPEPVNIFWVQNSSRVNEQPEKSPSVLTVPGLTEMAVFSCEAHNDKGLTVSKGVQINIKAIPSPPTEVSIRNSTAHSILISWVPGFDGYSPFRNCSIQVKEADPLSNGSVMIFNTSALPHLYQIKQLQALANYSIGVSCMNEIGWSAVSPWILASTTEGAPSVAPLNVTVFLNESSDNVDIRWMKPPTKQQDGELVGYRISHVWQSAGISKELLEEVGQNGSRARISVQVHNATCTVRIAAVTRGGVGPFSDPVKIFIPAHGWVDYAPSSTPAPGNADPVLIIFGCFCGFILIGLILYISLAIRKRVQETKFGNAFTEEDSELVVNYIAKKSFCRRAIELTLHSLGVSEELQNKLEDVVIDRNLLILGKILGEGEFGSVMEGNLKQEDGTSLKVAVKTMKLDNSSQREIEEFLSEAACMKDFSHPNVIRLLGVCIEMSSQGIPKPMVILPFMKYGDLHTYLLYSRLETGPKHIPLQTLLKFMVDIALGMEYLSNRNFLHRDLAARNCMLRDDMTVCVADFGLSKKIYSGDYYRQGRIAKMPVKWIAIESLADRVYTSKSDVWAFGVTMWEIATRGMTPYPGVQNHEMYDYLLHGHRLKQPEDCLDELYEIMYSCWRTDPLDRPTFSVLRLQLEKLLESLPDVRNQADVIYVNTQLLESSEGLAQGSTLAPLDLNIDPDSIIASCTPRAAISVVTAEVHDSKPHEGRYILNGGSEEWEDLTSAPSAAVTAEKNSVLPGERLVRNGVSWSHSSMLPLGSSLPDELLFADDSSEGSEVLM

AncSZ = experiment: as above
FGFR3 = FGFR3 (UniProt P22607); experiment: as above
EPHB2 = EPHB2 (UniProt P29323); experiment: as above
EPHB2, sequence (P29323 whole entry, looked up): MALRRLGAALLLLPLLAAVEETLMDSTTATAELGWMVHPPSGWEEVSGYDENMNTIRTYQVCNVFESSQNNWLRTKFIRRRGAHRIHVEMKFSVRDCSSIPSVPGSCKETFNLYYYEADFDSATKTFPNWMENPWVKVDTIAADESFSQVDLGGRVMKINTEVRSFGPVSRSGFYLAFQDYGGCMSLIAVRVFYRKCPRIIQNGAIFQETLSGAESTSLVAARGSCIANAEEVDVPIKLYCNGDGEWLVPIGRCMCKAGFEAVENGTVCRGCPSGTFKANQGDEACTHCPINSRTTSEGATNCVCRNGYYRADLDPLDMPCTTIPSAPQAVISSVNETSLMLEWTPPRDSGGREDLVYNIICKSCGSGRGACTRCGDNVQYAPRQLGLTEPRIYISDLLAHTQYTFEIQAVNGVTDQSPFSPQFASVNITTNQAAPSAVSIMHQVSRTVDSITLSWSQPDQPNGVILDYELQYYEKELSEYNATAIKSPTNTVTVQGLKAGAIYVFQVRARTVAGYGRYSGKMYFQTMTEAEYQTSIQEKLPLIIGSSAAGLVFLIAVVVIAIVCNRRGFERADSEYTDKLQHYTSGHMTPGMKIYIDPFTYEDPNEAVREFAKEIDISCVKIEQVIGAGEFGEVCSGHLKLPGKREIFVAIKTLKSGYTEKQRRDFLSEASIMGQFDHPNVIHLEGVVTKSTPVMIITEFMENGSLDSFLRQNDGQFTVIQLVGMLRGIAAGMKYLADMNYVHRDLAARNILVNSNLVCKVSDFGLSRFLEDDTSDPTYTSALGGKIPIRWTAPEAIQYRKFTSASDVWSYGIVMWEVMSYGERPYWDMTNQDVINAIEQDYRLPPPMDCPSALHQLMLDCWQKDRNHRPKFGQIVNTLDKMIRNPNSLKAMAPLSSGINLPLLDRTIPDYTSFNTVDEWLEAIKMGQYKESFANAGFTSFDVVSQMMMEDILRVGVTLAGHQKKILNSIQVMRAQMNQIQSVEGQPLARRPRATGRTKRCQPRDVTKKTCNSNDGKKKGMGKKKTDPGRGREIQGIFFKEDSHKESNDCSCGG

c-Abl (mouse) = experiment: as above
Fes = Fes (UniProt P07332); experiment: as above
Fes, sequence (P07332 whole entry, looked up, the tested form may be a part): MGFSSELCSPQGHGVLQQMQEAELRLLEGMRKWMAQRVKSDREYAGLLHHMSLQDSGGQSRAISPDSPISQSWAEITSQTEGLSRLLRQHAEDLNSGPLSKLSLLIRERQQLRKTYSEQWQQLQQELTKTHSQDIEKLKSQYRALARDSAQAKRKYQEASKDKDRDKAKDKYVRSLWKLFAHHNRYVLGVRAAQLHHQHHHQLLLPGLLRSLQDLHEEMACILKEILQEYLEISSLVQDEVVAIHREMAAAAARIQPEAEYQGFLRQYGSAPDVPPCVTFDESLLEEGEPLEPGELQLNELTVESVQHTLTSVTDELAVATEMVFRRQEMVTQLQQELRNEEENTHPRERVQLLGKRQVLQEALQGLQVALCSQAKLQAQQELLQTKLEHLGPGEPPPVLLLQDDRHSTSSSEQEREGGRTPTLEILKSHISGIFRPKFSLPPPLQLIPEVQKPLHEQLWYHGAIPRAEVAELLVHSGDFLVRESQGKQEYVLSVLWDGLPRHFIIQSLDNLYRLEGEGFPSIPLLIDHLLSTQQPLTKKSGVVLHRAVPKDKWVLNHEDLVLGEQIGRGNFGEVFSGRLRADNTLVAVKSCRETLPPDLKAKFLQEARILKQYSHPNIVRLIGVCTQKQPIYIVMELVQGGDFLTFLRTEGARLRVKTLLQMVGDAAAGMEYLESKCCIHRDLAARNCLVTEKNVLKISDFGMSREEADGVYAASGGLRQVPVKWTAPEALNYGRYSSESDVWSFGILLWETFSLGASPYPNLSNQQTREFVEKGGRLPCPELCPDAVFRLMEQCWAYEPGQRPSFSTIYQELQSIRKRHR
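Wherever SH2 binding enrichment of the phosphorylated peptide, bacterial display is given: peptide library displayed on the E. coli surface as eCPX fusions, selected cells deep-sequenced, score is each peptide's frequency after selection divided by its frequency in the input.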
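Wherever phosphorylation enrichment, bacterial display is given: 11-residue human phosphosite peptides and single-mutation variants displayed on the E. coli surface, counted by deep sequencing, each peptide's frequency after selection divided by its frequency in the unselected input library; frequency after pTyr selection over input frequency; kinase dosed for 20-30% of maximal phosphorylation in three min.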

Grb2 SH2, sequence (P62993 whole entry, looked up): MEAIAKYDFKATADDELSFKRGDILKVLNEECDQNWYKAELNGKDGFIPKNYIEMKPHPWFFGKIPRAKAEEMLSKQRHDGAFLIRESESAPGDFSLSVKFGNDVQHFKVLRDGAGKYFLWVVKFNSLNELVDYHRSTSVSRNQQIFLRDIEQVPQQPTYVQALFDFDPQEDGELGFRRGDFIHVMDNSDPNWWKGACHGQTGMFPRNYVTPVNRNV

| Sequence | SH2 binding enrichment (Grb2 SH2) | SH2 binding enrichment (c-Src SH2) | SH2 binding enrichment (SHP2-C SH2) | phosphorylation enrichment (Jak2) | phosphorylation enrichment (EPHB1) | phosphorylation enrichment (FGFR1) | phosphorylation enrichment (c-Src) | phosphorylation enrichment (Fyn) | phosphorylation enrichment (Fer (mouse)) | phosphorylation enrichment (Hck) | phosphorylation enrichment (MERTK) | phosphorylation enrichment (AncSZ) | phosphorylation enrichment (FGFR3) | phosphorylation enrichment (EPHB2) | phosphorylation enrichment (c-Abl (mouse)) | phosphorylation enrichment (Fes) |
| --- | --- | --- | --- | --- | --- | --- | --- | --- | --- | --- | --- | --- | --- | --- | --- | --- |
| RTVDVYFGPQM [KIRREL3_Y332_R336Q] | 0.838 | 0.304 | 0.453 | 1.25 | 1.04 | 0.824 | 1.73 | 1.45 | 0.71 | 1.73 | 0.577 | 1.51 | 0.919 | 0.677 | 1.53 | 1.15 |
| RGRDSYGGPPR [RBMX_Y190] | 1.1 | 0.519 | 0.82 | 0.557 | 0.427 | 0.604 | 0.8 | 0.721 | 0.589 | 0.64 | 0.632 | 0.744 | 0.563 | 0.613 | 0.934 | 0.734 |
| RLLVDYPWTQR [HBB_Y36_V35D] | 0.883 | 0.554 | 0.884 | 0.516 | 0.591 | 0.544 | 0.351 | 0.616 | 0.45 | 0.476 | 0.411 | 0.978 | 0.75 | 0.542 | 0.465 | 0.759 |
| VDDQIYYFRKP [PBRM1_Y1289_E1287Q] | 0.746 | 0.487 | 0.825 | 2.07 | 1.08 | 8.8 | 6.28 | 8.3 | 1.75 | 8.88 | 5.41 | 2.93 | 7.78 | 0.98 | 12.8 | 1.23 |
| TTHRGYDSDNP [MMUT_Y146_A141T] | 1.02 | 0.413 | 0.595 | 0.699 | 0.685 | 0.542 | 0.389 | 0.685 | 0.423 | 0.665 | 0.53 | 0.744 | 0.823 | 0.532 | 0.642 | 0.859 |
| SHNELYFEEAE [VANGL1_Y344_YF] | 0.941 | 0.46 | 0.71 | 1.23 | 0.568 | 0.68 | 0.492 | 0.67 | 0.693 | 0.633 | 0.556 | 1.09 | 1.02 | 0.619 | 0.671 | 1.21 |
| RTVDVYFGPRM [KIRREL3_Y332] | 0.901 | 0.348 | 0.593 | 0.618 | 0.643 | 0.758 | 0.72 | 1.06 | 0.711 | 1.5 | 0.591 | 1.15 | 1.23 | 1.33 | 0.65 | 1.14 |
| CTTIDYNFMCN [TP53_Y234_H233D_YF] | 0.874 | 0.931 | 0.661 | 1.21 | 0.474 | 0.882 | 0.874 | 0.527 | 0.597 | 0.528 | 0.529 | 1.27 | 0.911 | 0.651 | 1.04 | 1.27 |
| IGHHAYGDQYR [IDH1_Y135_R132H] | 0.724 | 0.629 | 0.538 | 0.448 | 0.426 | 0.389 | 0.418 | 0.355 | 0.386 | 0.439 | 0.421 | 0.564 | 0.342 | 0.363 | 0.467 | 0.537 |
| PVQAAYQKVVP [HBB_Y131_A136P] | 0.881 | 1 | 0.751 | 0.88 | 0.787 | 0.727 | 0.626 | 0.878 | 0.827 | 0.803 | 0.619 | 0.763 | 0.775 | 0.631 | 0.561 | 0.64 |
| AGEGTYALDSE [PES1_Y265] | 0.928 | 0.617 | 0.435 | 0.878 | 0.576 | 0.484 | 0.935 | 0.984 | 0.5 | 0.528 | 0.434 | 0.972 | 0.643 | 0.511 | 0.816 | 1.04 |
| RGNKEYEEEKR [LENG1_Y96] | 0.863 | 0.538 | 0.739 | 0.822 | 0.519 | 0.407 | 0.323 | 0.534 | 0.394 | 0.737 | 0.314 | 0.723 | 0.686 | 0.493 | 0.458 | 0.756 |
| MSPPGYKLLTG [GJA1_Y286_V289L] | 0.828 | 0.488 | 0.67 | 0.669 | 0.542 | 0.515 | 0.503 | 0.454 | 0.474 | 0.405 | 0.465 | 0.625 | 0.599 | 0.891 | 0.731 | 0.756 |
| CQNRFYDAKVR [FKBP6_Y188_R183C] | 0.941 | 0.684 | 0.914 | 0.869 | 0.445 | 0.495 | 0.416 | 0.373 | 0.426 | 0.475 | 0.477 | 0.794 | 0.669 | 0.485 | 0.684 | 0.897 |
| VECHLYFTQPK [AKR1D1_Y199_P198L] | 0.801 | 0.374 | 0.867 | 1.58 | 0.717 | 0.493 | 0.91 | 0.588 | 0.645 | 0.631 | 0.556 | 1.42 | 0.946 | 0.663 | 1.02 | 1.33 |
| IINENYDFLKG [NUP98_Y1664_YF] | 0.831 | 0.755 | 0.737 | 0.761 | 0.677 | 0.518 | 0.495 | 0.426 | 0.466 | 1.19 | 0.602 | 0.82 | 0.631 | 0.726 | 0.57 | 0.903 |
| LSSEMYVKSFT [F5_Y2149_YF] | 0.676 | 0.364 | 0.708 | 0.965 | 0.609 | 1.15 | 0.307 | 0.647 | 0.837 | 0.933 | 0.641 | 1.35 | 0.975 | 0.788 | 0.684 | 1.27 |

| Sequence | SH2 binding enrichment (Grb2 SH2) | SH2 binding enrichment (c-Src SH2) | SH2 binding enrichment (SHP2-C SH2) | phosphorylation enrichment (Jak2) | phosphorylation enrichment (EPHB1) | phosphorylation enrichment (FGFR1) | phosphorylation enrichment (c-Src) | phosphorylation enrichment (Fyn) | phosphorylation enrichment (Fer (mouse)) | phosphorylation enrichment (Hck) | phosphorylation enrichment (MERTK) | phosphorylation enrichment (AncSZ) | phosphorylation enrichment (FGFR3) | phosphorylation enrichment (EPHB2) | phosphorylation enrichment (c-Abl (mouse)) | phosphorylation enrichment (Fes) |
| --- | --- | --- | --- | --- | --- | --- | --- | --- | --- | --- | --- | --- | --- | --- | --- | --- |
| KSLFHHRQFSA [CPS1_Y1491_Y1491H_YF] | 0.843 | 0.521 | 0.92 | 0.407 | 0.418 | 0.353 | 0.279 | 0.403 | 0.297 | 0.297 | 0.36 | 0.448 | 0.373 | 0.295 | 0.431 | 0.543 |
| SVTCKYSPALN [TP53_Y126_T125K] | 0.752 | 0.363 | 0.654 | 0.629 | 0.431 | 0.429 | 0.454 | 0.344 | 0.392 | 0.431 | 0.386 | 0.638 | 0.515 | 0.457 | 0.458 | 0.795 |
| QWRTKYETDAI [MYH7_Y1375] | 0.849 | 0.542 | 0.521 | 1.74 | 0.663 | 0.4 | 0.528 | 0.643 | 0.543 | 0.355 | 0.545 | 0.971 | 0.624 | 0.432 | 1.04 | 1.36 |
| DKHGQYLIGHG [EPHB4_Y581] | 0.905 | 0.485 | 0.565 | 0.599 | 0.397 | 0.482 | 0.436 | 0.449 | 0.465 | 0.475 | 0.378 | 0.652 | 0.576 | 0.376 | 0.525 | 0.645 |
| FDDIAYIRKAL [PIK3CA_Y1021_T1025A] | 0.787 | 0.39 | 0.607 | 0.52 | 0.361 | 0.358 | 0.436 | 0.427 | 0.387 | 0.495 | 0.454 | 0.708 | 0.461 | 0.448 | 0.5 | 0.685 |
| EEVGIYRVSGV [BCR_Y1089] | 0.732 | 0.491 | 0.521 | 0.794 | 0.488 | 0.457 | 4.45 | 4.31 | 0.504 | 3.09 | 0.575 | 1.04 | 0.647 | 0.434 | 14.1 | 0.919 |
| PSELYYSKISP [SMG1_Y2254_G2258S] | 1.18 | 4.6 | 2.66 | 6.46 | 6.25 | 11.7 | 8.68 | 6.66 | 23.8 | 17.9 | 23.1 | 2.87 | 8.81 | 3.13 | 4.3 | 2.15 |
| FPRTGYSVPFG [TGM1_Y370_L366P_YF] | 0.987 | 3.87 | 1.4 | 0.688 | 0.493 | 0.379 | 0.511 | 0.475 | 0.421 | 0.419 | 0.485 | 0.686 | 0.513 | 0.504 | 1.11 | 0.709 |
| SPPILYSFFLD [FCRL6_Y239_YF] | 1.21 | 0.74 | 1.01 | 1.18 | 2.85 | 1.4 | 3.23 | 2.28 | 1.84 | 2.08 | 9.91 | 1.19 | 1.38 | 1.97 | 0.901 | 1.14 |
| SDVSSYLEGQV [GCG_Y110_A115V] | 0.81 | 0.479 | 0.569 | 1.09 | 0.616 | 0.532 | 0.52 | 0.557 | 0.547 | 0.511 | 0.478 | 0.924 | 0.735 | 0.534 | 0.838 | 1.24 |
| RGRSTYFWPSP [GAGE12J_Y9_R13S_YF] | 0.557 | 0.491 | 0.524 | 0.673 | 0.468 | 0.49 | 0.505 | 0.511 | 0.504 | 0.824 | 0.947 | 0.669 | 0.615 | 0.621 | 0.711 | 0.564 |
| KHVMPYAANKN [GRIN2A_Y1431_E1426K] | 1.03 | 0.92 | 1.2 | 0.443 | 0.301 | 0.401 | 0.36 | 0.345 | 0.374 | 0.332 | 0.383 | 0.547 | 0.387 | 0.43 | 0.484 | 0.511 |
| SDIEEYVHRIG [DDX3X_Y525] | 0.994 | 0.534 | 0.892 | 0.791 | 0.473 | 0.426 | 0.41 | 0.429 | 0.367 | 0.455 | 0.384 | 0.978 | 0.567 | 0.456 | 0.953 | 0.972 |
| FKDFFYCWNTS [AICDA_Y146_F151S_YF] | 0.815 | 0.59 | 0.689 | 1.42 | 0.942 | 0.496 | 0.589 | 0.458 | 0.768 | 0.589 | 0.836 | 1.32 | 0.939 | 0.61 | 1.08 | 1.5 |
| EFGRRYGFSRQ [CCDC93_Y209_YF] | 0.686 | 0.546 | 0.508 | 0.607 | 0.427 | 0.43 | 0.492 | 0.449 | 0.338 | 0.422 | 0.499 | 0.621 | 0.432 | 0.416 | 1.42 | 0.634 |
| RYLYYYSYLLK [PTEN_Y178_V175L] | 0.878 | 0.966 | 1.57 | 3.29 | 3.51 | 3.1 | 1.76 | 0.58 | 0.676 | 1.65 | 5.64 | 1.93 | 2.91 | 1.94 | 2.23 | 1.7 |
